Columns and labels:
Experiment in all cases: ITC
[1] = molecular target: PDLIM7 PDZ domain (1-84) W14Y (human, UniProt Q9NR12 1-84, W14Y)
[2] = molecular target: T1, PDZ domain of human PDLIM3 (residues 1-84) (human, UniProt Q53GG5 1-84)
T1 sequence: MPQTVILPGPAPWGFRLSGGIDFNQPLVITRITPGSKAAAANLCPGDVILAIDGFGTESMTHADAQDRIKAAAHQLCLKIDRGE

[3] = molecular target: PDLIM7 PDZ domain (1-84) H63A (human, UniProt Q9NR12 1-84, H63A)
[4] = molecular target: T2, PDZ domain of human PDLIM4 (residues 1-84) (human, UniProt P50479 1-84)
T2 sequence: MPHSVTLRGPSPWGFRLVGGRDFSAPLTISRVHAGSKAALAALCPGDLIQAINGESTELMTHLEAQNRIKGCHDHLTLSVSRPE

[5] = molecular target: T3, PDZ domain of human PDLIM2 (residues 1-84) (human, UniProt Q96JY6 1-84)
T3 sequence: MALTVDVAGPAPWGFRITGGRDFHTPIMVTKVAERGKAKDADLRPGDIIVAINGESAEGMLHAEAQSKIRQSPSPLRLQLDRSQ

[6] = molecular target: PDLIM7 PDZ domain (1-84) Q67A (human, UniProt Q9NR12 1-84, Q67A)
[7] = molecular target: T4, PDZ domain of human PDLIM1 (residues 1-84) (human, UniProt O00151 1-84)
T4 sequence: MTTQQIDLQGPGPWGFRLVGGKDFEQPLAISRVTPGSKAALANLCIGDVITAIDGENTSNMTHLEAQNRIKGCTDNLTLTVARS

[8] = molecular target: PDZ domain of human PDLIM7 (residues 1-84) (human, UniProt Q9NR12 1-84)
[9] = molecular target: PDLIM7 PDZ domain (1-84) P11E (human, UniProt Q9NR12 1-84, P11E)
[10] = molecular target: T5, PDZ domain of human PDLIM5 (residues 1-84) (human, UniProt Q96HC4 1-84)
T5 sequence: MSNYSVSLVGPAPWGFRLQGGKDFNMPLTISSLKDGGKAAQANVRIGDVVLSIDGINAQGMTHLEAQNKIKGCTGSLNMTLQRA

Measured: binding result

PDZ domain of human PDLIM7 (residues 1-84), sequence (Q9NR12 1-84): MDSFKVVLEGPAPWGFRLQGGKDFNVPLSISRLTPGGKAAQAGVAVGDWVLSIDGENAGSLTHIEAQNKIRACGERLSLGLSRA
PDLIM7 PDZ domain (1-84) Q67A, sequence (Q9NR12 1-84 Q67A): as the sequence (Q9NR12 1-84) above, with Q67A counted along it
PDLIM7 PDZ domain (1-84) W14Y, sequence (Q9NR12 1-84 W14Y): as the sequence (Q9NR12 1-84) above, with W14Y counted along it
PDLIM7 PDZ domain (1-84) H63A, sequence (Q9NR12 1-84 H63A): as the sequence (Q9NR12 1-84) above, with H63A counted along it
PDLIM7 PDZ domain (1-84) P11E, sequence (Q9NR12 1-84 P11E): as the sequence (Q9NR12 1-84) above, with P11E counted along it

HGNFAFEGIGDEDL [SNX17 C-terminal peptide (457-470) used for ITC]
binds: all assays above

HGNFAFEGIGDRDL [SNX17 C-terminal peptide E468R]
binds: [8]

Source: paper doi:10.1101/2021.07.29.454387 (bioRxiv, 2021)
